Laboratory results taken from PMC12732313, “Phylogenetic and biochemical analysis of the evolution and interdomain modularity of bifunctional L-fucokinase/GDP-fucose pyrophosphorylases” (The Journal of Biological Chemistry, 2025).

Assays:
[1] = tested on: C[C@@H]1O[C@H](OP(=O)(O)O)[C@@H](O)[C@H](O)[C@@H]1O; experiment: purified protein; conditions: pyrophosphorylase activity, 400 μM GTP, 10 mM MgCl2, pH 7.5, 37 °C
[2] = tested on: Nc1nc2c(ncn2[C@@H]2O[C@H](COP(=O)(O)OP(=O)(O)OP(=O)(O)O)[C@@H](O)[C@H]2O)c(=O)[nH]1; experiment: purified protein; conditions: pyrophosphorylase activity, 250 μM Fuc-1-P, 10 mM MgCl2, pH 7.5, 37 °C
[3] = molecular target: T1, BfFKP (Bacteroides fragilis, UniProt Q58T34); experiment: thermal shift, SYPRO orange; assay type: binding; conditions: 2 mM L-fucose, pH 7.0; lower melting transition; domain not assigned
T1 construct: gene fkp; codon-optimized gene in pET vector, E. coli BL21(DE3) with GroEL/GroES/Trigger Factor; Ni-IMAC; no solubility tag
Description: thermal shift, SYPRO orange on BfFKP

[4] = molecular target: T2, TxFKP (Thermophagus xiamenensis, UniProt A0A1I2DJ10); experiment: thermal shift, SYPRO orange; assay type: binding; conditions: 2 mM L-fucose, pH 7.0; Tm2 assigned to FUK domain
T2 construct: gene SAMN05444380_11920; codon-optimized gene in pET-28a, E. coli BL21(DE3) with GroEL/GroES/Trigger Factor; Ni-IMAC; GroEL (~60 kDa) contaminant remains
T2 sequence (A0A1I2DJ10 1-954): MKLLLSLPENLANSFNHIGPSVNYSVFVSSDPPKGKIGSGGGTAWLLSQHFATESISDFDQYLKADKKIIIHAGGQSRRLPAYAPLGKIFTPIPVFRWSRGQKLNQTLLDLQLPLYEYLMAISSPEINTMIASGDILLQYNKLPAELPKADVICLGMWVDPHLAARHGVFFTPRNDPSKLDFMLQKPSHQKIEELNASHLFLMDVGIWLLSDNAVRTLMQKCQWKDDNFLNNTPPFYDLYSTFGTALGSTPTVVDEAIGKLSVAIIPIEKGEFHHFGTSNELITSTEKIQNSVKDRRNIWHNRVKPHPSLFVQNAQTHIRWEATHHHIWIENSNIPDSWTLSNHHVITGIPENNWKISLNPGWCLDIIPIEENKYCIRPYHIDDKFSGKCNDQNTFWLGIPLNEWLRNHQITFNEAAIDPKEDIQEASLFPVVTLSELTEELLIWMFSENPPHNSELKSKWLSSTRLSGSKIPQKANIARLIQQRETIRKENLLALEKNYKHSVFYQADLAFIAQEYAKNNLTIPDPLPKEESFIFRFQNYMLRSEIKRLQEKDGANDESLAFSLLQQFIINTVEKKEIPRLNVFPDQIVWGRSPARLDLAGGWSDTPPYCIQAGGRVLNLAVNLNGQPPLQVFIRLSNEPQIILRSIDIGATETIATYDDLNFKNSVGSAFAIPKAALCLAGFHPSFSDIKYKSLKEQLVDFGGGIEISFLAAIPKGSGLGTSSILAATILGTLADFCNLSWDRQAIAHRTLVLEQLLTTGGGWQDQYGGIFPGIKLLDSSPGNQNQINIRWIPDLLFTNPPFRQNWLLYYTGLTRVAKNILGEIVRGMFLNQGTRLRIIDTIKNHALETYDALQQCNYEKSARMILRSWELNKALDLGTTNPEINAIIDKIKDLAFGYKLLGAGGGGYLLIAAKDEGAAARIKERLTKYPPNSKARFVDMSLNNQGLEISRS
Description: thermal shift, SYPRO orange on TxFKP

[5] = substrate: Nc1nc2c(ncn2[C@@H]2O[C@H](COP(=O)(O)OP(=O)(O)OP(=O)(O)O)[C@@H](O)[C@H]2O)c(=O)[nH]1; experiment: purified protein; assay type: biochemical, Thermophagus xiamenensis; conditions: pyrophosphorylase activity, 250 μM Fuc-1-P, 10 mM MgCl2, pH 7.5, 37 °C
[6] = substrate: C[C@@H]1O[C@H](OP(=O)(O)O)[C@@H](O)[C@H](O)[C@@H]1O; experiment: purified protein; assay type: biochemical, Thermophagus xiamenensis; conditions: pyrophosphorylase activity, 100 μM GTP, 10 mM MgCl2, pH 7.5, 37 °C
[7] = substrate: Nc1ncnc2c1ncn2[C@@H]1O[C@H](COP(=O)(O)OP(=O)(O)OP(=O)(O)O)[C@@H](O)[C@H]1O; experiment: purified protein; assay type: biochemical, Thermophagus xiamenensis; conditions: kinase activity, 1 mM L-fucose, 10 mM MnCl2, pH 7.5, 37 °C

T1 sequence (Q58T34 whole entry): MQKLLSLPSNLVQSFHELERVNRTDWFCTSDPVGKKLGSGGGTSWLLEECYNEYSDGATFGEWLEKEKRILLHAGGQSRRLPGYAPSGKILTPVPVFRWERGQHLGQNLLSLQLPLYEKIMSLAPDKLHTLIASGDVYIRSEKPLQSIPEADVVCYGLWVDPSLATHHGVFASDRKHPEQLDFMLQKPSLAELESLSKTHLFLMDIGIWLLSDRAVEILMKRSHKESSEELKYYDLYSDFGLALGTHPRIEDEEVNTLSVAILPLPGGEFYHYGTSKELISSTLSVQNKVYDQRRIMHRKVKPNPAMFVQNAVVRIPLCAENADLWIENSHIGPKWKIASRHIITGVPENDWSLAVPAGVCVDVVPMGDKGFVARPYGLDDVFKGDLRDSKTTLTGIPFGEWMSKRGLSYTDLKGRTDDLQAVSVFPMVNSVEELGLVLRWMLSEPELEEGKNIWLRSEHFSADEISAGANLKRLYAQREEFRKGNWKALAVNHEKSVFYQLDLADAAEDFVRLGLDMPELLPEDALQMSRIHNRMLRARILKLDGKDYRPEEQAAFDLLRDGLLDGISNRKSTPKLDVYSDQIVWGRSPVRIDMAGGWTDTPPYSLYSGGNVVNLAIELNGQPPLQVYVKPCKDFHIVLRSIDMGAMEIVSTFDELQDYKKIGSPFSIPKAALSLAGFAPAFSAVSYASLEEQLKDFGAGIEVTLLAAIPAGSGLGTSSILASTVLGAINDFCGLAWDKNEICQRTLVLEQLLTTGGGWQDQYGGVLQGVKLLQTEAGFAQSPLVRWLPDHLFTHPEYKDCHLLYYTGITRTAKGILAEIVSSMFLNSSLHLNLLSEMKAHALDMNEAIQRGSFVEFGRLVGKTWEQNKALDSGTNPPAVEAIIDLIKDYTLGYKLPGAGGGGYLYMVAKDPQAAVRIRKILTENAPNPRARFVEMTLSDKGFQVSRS

BfFKP (Bacteroides fragilis)
Km [1]: 120 ± 60 µM
kcat [1]: 9 ± 3 s⁻¹
kcat/Km [1]: 70000 ± 50000 M⁻¹ s⁻¹
Km [2]: 140 ± 30 µM
kcat [2]: 13 ± 3 s⁻¹
kcat/Km [2]: 90000 ± 30000 M⁻¹ s⁻¹

C[C@@H]1OC(O)[C@@H](O)[C@H](O)[C@@H]1O (stereo partly drawn) [L-fucose]
ΔTm1 (°C) [3]: 2.0 ± 0.0 °C
Δ Tm2 (°C) [4]: 1.8 ± 0.2 °C

B1: TxFKP (Thermophagus xiamenensis) (protein)
chain: T2 sequence (A0A1I2DJ10 1-954)
notes: codon-optimized gene in pET-28a, E. coli BL21(DE3) with GroEL/GroES/Trigger Factor; Ni-IMAC; GroEL (~60 kDa) contaminant remains
Km [5]: 27 ± 11 µM
kcat [5]: 8 ± 1.1 s⁻¹
kcat/Km [5]: 300000 ± 130000 M⁻¹ s⁻¹
Km [6]: 66 ± 20 µM
kcat [6]: 4.8 ± 0.6 s⁻¹
kcat/Km [6]: 70000 ± 30000 M⁻¹ s⁻¹
Km [7]: 1000 ± 300 µM
kcat [7]: 0.74 ± 0.07 s⁻¹
kcat/Km [7]: 700 ± 300 M⁻¹ s⁻¹
